Reference: patent publication US20210347913A1 (CRISPR THERAPEUTICS, published 2021)
Positions count from the first letter of the chain named. Numbers in names are those of the source.

Key:
anti-PTK7 antibody Ab181 = molecular target: T1, anti-PTK7 antibody Ab181; assay: phage display selection of peptide binders of Ab181 (Screen 2, XnCXnCXn library)
T1 construct: Unmasked parent IgG1kappa; also called Ab181 IgG1kappa

[1] = molecular target: T2, PTK7 on PTK7 positive cell line SaOS-2 (osteosarcoma) (UniProt Q13308 31-1070, limits assumed); assay: cell-based or functional assay
T2 sequence (looked up): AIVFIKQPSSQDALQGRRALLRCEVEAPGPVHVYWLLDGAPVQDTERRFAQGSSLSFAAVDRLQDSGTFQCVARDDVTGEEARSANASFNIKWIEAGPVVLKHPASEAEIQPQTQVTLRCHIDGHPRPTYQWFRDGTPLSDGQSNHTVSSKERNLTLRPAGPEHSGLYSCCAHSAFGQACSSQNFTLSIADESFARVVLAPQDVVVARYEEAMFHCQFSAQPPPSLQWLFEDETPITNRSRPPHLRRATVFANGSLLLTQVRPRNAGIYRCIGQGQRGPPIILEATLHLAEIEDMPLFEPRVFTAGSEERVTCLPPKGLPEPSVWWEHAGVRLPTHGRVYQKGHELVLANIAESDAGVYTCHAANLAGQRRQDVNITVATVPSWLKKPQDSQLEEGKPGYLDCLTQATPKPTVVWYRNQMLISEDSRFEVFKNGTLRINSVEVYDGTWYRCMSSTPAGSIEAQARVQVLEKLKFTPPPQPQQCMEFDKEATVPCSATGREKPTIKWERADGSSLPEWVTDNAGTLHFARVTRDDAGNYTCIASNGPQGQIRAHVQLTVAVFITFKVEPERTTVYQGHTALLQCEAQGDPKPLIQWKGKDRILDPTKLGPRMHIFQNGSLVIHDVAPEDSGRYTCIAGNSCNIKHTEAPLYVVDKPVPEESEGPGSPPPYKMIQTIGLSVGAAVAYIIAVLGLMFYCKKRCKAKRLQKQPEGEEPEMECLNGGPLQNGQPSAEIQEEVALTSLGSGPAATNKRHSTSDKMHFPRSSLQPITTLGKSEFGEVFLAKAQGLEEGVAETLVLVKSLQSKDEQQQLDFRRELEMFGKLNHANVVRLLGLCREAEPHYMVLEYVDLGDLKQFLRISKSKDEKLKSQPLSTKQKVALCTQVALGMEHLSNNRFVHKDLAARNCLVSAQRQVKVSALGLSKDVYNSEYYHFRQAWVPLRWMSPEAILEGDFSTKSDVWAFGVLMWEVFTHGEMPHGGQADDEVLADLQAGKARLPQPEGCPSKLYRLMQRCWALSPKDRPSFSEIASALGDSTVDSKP

[2] = molecular target: T2, PTK7 on PTK7 positive cell line SaOS-2 …; assay: cell-based or functional assay; remark: listed apart in the source
[3] = molecular target: T3, recombinant human PTK7.Fc (R and D Systems, catalog #9799-TK) (human, UniProt Q13308 31-704, limits assumed); assay: flow cytometry, percent of CAR T cells positive for 10 ug/mL PTK7.Fc
T3 construct: Bought reagent; also called soluble recombinant human PTK7.Fc; soluble antigen PTK7; not shown: Fc part of the bought fusion (detected with anti-human Fc)
T3 sequence (looked up): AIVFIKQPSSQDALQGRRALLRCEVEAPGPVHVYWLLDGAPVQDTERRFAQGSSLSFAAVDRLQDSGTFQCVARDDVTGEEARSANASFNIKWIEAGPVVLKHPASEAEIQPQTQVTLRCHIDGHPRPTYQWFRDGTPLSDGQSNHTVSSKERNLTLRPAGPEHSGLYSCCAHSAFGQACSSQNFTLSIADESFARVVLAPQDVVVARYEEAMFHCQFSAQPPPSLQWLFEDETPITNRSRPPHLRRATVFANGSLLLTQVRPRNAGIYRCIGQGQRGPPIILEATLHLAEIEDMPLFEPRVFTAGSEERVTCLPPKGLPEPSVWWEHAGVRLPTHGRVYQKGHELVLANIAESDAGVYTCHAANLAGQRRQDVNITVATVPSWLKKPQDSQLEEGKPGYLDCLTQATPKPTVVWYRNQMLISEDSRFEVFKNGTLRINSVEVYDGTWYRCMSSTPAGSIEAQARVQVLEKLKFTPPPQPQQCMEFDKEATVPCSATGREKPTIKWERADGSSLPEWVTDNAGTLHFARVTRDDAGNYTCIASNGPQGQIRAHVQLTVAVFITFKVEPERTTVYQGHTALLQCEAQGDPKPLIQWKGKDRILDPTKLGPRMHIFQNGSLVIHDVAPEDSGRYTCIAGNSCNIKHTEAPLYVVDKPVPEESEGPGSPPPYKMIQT
Procedure: In addition to detecting surface CAR expression, the ability of the CAR T cells and masked CAR T cells to detect target antigen was also determined. Live CAR T cells were gated by their forward scatter (FSC) and side scatter (SSC) profiles, and with DAPI dye (Invitrogen, catalog #: D3571). The cells were then stained with 10 μg/mL recombinant human PTK7.Fc (R and D Systems, catalog #9799-TK Lot DHMCO219041) as described above in Example 3, and with mouse anti-human.Fc conjugated to APC (Biolegend cat #409305) as secondary antibody for detection (FIG. 3).

B1: mask peptide M3 (peptide)
peptide: CTMPPSPRSKVIC
notes: Found by phage display (Screen 2); in the masked constructs preceded by QG and fused through a cleavable linker
binding result (anti-PTK7 antibody Ab181): binds

B2: CTX181.M5 (other)
chain: QGCTYPSWVAYIRFCGSSGGSGGSGGSGGGPLGLAGGSSGQVQLVESGGGVVQPGRSLRLSCAASGFTFSSYGMHWVRQAPGKGLEWVAVIWDDGSNKYYVDSVKGRFTISRDNSKNTLYLQMNSLRAEDTAVYYCARDDYYGSGSFNSYYGTDVWGQGTTVTVSSGGGGSGGGGSGGGGSEIVLTQSPATLSLSPGERATLSCRASQSVSIYLAWYQQKPGQAPRLLIYDASNRATGIPARFSGSGSGTDFTLTISSLEPEDFAVYYCQQRSNWPPFTFGPGTKVDIKSAAAFVPVFLPAKPTTTPAPRPPTPAPTIASQPLSLRPEACRPAAGGAVHTRGLDFACDIYIWAPLAGTCGVLLLSLVITLYCNHRNRSKRSRLLHSDYMNMTPRRPGPTRKHYQPYAPPRDFAAYRSRVKFSRSADAPAYQQGQNQLYNELNLGRREEYDVLDKRRGRDPEMGGKPRRKNPQEGLYNELQKDKMAEAYSEIGMKGERRRGKGHDGLYQGLSTATKDTYDALHMQALPPR
notes: Masked chimeric antigen receptor on the surface of TRAC-/B2M- human T cells; entry without signal peptide
% Cell killing at E:T = 1:0.5 [1]: 29.6% | % Cell killing at E:T = 1:1 [1]: -0.8% | IFNγ (pg/mL) at E:T = 1:0.5 [2]: 523 pg/mL | IFNγ (pg/mL) at E:T = 1:1 [2]: 459 pg/mL | % Antigen detection [3]: 18.5%

B3: CTX181.M12 (other)
chain: B2 chain with Y5M, S7V, W8H, V9T, A10Y, Y11S, I12Q, R13W, F14L
% Cell killing at E:T = 1:0.5 [1]: 29.5% | % Cell killing at E:T = 1:1 [1]: 18.5% | IFNγ (pg/mL) at E:T = 1:0.5 [2]: 2420 pg/mL | IFNγ (pg/mL) at E:T = 1:1 [2]: 1770 pg/mL

B4: CTX181.M3 (other)
chain: B2 chain with Y5M, S7P, W8S, V9P, A10R, Y11S, I12K, R13V, F14I
% Cell killing at E:T = 1:0.5 [1]: 39% | % Cell killing at E:T = 1:1 [1]: 17.8% | IFNγ (pg/mL) at E:T = 1:0.5 [2]: 833 pg/mL | IFNγ (pg/mL) at E:T = 1:1 [2]: 799 pg/mL

B5: CTX181.M4 (other)
chain: B2 chain with Y5F, S7N, W8T, V9T, A10M, Y11Q, I12R, R13T
notes: as for B2
% Cell killing at E:T = 1:0.5 [1]: 78.4% | % Cell killing at E:T = 1:1 [1]: 54.6% | IFNγ (pg/mL) at E:T = 1:0.5 [2]: 9550 pg/mL | IFNγ (pg/mL) at E:T = 1:1 [2]: 13200 pg/mL | % Antigen detection [3]: 32.6%

B6: CTX181.M9 (other)
chain: QGCHIGKRPVPCLWIGSSGGSGGSGGSGGGPLGLAGGSSGQVQLVESGGGVVQPGRSLRLSCAASGFTFSSYGMHWVRQAPGKGLEWVAVIWDDGSNKYYVDSVKGRFTISRDNSKNTLYLQMNSLRAEDTAVYYCARDDYYGSGSFNSYYGTDVWGQGTTVTVSSGGGGSGGGGSGGGGSEIVLTQSPATLSLSPGERATLSCRASQSVSIYLAWYQQKPGQAPRLLIYDASNRATGIPARFSGSGSGTDFTLTISSLEPEDFAVYYCQQRSNWPPFTFGPGTKVDIKSAAAFVPVFLPAKPTTTPAPRPPTPAPTIASQPLSLRPEACRPAAGGAVHTRGLDFACDIYIWAPLAGTCGVLLLSLVITLYCNHRNRSKRSRLLHSDYMNMTPRRPGPTRKHYQPYAPPRDFAAYRSRVKFSRSADAPAYQQGQNQLYNELNLGRREEYDVLDKRRGRDPEMGGKPRRKNPQEGLYNELQKDKMAEAYSEIGMKGERRRGKGHDGLYQGLSTATKDTYDALHMQALPPR
notes: as for B2
% Antigen detection [3]: 35.1%

B7: mask peptide M9 (peptide)
peptide: CHIGKRPVPCLWI
notes: as for B1
binding result (anti-PTK7 antibody Ab181): binds

B8: mask peptide M12 (peptide)
peptide: CTMPVHTYSQWLC
notes: as for B1
binding result (anti-PTK7 antibody Ab181): binds

B9: mask peptide M5 (peptide)
peptide: CTYPSWVAYIRFC
notes: as for B1
binding result (anti-PTK7 antibody Ab181): binds

B10: mask peptide M10 (peptide)
peptide: CYIGLRMVPCFHM
notes: as for B1
binding result (anti-PTK7 antibody Ab181): binds

B11: mask peptide M13 (peptide)
peptide: CTYPPRFHMHWLC
notes: as for B1
binding result (anti-PTK7 antibody Ab181): binds

B12: mask peptide M7 (peptide)
peptide: CTMPYHIHSIGLC
notes: as for B1
binding result (anti-PTK7 antibody Ab181): binds

B13: mask peptide M11 (peptide)
peptide: CTMPSHAVASFLC
notes: as for B1
binding result (anti-PTK7 antibody Ab181): binds

B14: mask peptide M4 (peptide)
peptide: CTFPNTTMQRTFC
notes: as for B1
binding result (anti-PTK7 antibody Ab181): binds

B15: mask peptide M14 (peptide)
peptide: CTHVAQWAIKAFC
notes: as for B1
binding result (anti-PTK7 antibody Ab181): binds

B16: CTX181 (unmasked CAR) (other)
chain: QVQLVESGGGVVQPGRSLRLSCAASGFTFSSYGMHWVRQAPGKGLEWVAVIWDDGSNKYYVDSVKGRFTISRDNSKNTLYLQMNSLRAEDTAVYYCARDDYYGSGSFNSYYGTDVWGQGTTVTVSSGGGGSGGGGSGGGGSEIVLTQSPATLSLSPGERATLSCRASQSVSIYLAWYQQKPGQAPRLLIYDASNRATGIPARFSGSGSGTDFTLTISSLEPEDFAVYYCQQRSNWPPFTFGPGTKVDIKSAAAFVPVFLPAKPTTTPAPRPPTPAPTIASQPLSLRPEACRPAAGGAVHTRGLDFACDIYIWAPLAGTCGVLLLSLVITLYCNHRNRKRGRKKLLYIFKQPFMRPVQTTQEEDGCSCRFPEEEEGGCELRVKFSRSADAPAYQQGQNQLYNELNLGRREEYDVLDKRRGRDPEMGGKPRRKNPQEGLYNELQKDKMAEAYSEIGMKGERRRGKGHDGLYQGLSTATKDTYDALHMQALPPR
notes: Chimeric antigen receptor (Ab181 scFv) on the surface of TRAC-/B2M- human T cells; entry without signal peptide; also called anti-PTK7 CAR; unmasked CAR CTX181
% Cell killing at E:T = 1:0.5 [1]: 97.1% | % Cell killing at E:T = 1:1 [1]: 96.6% | IFNγ (pg/mL) at E:T = 1:0.5 [2]: 22300 pg/mL | IFNγ (pg/mL) at E:T = 1:1 [2]: 34900 pg/mL | % Antigen detection [3]: 61.9%

B17: mask peptide M8 (peptide)
peptide: WCTIPSSMSIRLC
notes: as for B1
binding result (anti-PTK7 antibody Ab181): binds

B18: mask peptide M6 (peptide)
peptide: VCTYPPAHRTRFC
notes: as for B1
binding result (anti-PTK7 antibody Ab181): binds
